How the values were obtained:
[1] = molecular target: T1, ZRANB3 F47A (human, UniProt Q5FWF4 1-1079, F47A); experiment: pull-down; ZRANB3 F→A variants and RAD51 (Supplementary Figure S4); the methods tell two set-ups (MBP-RAD51 on amylose resin with purified FLAG-ZRANB3; FLAG-ZRANB3 variants from Sf9 soluble extract on anti-FLAG resin with purified RAD51) and the text does not tell which was used for which variant; 100 mM NaCl, 1 h at 4°C; conditions: both partners purified
T1 construct: human ZRANB3 with F47A; construct as m2; also called F47A substitution mutant; source: Sf9, expressed and purified similarly as the wild type
T1 sequence (looked up): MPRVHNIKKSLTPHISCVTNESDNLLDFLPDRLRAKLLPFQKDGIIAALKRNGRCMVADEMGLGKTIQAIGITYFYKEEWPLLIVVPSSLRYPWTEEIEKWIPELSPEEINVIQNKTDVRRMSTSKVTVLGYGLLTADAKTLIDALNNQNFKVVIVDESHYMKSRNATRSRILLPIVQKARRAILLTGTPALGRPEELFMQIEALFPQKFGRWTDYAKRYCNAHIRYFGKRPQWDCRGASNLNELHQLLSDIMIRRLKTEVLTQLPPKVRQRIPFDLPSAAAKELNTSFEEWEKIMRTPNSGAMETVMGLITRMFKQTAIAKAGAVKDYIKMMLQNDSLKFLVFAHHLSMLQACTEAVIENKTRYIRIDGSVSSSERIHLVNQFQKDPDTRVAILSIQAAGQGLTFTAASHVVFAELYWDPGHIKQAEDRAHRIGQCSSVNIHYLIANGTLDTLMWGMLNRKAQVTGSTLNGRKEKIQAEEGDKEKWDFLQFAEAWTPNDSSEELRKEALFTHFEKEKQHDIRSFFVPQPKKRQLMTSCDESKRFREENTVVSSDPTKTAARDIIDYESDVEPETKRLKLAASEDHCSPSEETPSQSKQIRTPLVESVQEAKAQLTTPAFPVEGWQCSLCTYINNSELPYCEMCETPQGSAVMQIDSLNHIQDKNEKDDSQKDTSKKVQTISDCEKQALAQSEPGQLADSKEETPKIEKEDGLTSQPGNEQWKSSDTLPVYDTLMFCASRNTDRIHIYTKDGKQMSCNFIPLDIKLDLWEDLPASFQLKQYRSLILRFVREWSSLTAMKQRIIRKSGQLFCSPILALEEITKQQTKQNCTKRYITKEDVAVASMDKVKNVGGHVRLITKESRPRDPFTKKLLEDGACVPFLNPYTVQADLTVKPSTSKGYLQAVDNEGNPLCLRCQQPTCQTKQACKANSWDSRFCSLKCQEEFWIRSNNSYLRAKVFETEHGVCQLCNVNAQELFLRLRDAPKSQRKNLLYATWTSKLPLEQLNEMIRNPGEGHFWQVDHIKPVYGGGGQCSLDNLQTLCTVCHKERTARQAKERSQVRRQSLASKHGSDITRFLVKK

[2] = molecular target: T2, SMARCAL1 F439 F→A variant (human, UniProt Q9NZC9 1-954, F439 (F→A variant)); experiment: pull-down; MBP-RAD51 (bait) from bacterial soluble extract bound to amylose resin and washed; purified FLAG-SMARCAL1, FLAG-ZRANB3 or FLAG-BCDX2 (1 μg, prey) in 150 μl IP buffer (25 mM Tris-HCl pH 7.5, 100 mM NaCl, 3 mM EDTA, 0.5 mM DTT, BSA, 10% glycerol), 1 h at 4°C; eluted with maltose; Western blot with anti-MBP and anti-FLAG; conditions: both partners purified
T2 construct: human SMARCAL1 with F439 disrupted; the methods call the variants SMARCAL1 F→A variants; construct as m1; The text says only 'disruption of F439'; also called disruption of F439; source: Sf9, purified similarly as the wild type
T2 sequence (looked up): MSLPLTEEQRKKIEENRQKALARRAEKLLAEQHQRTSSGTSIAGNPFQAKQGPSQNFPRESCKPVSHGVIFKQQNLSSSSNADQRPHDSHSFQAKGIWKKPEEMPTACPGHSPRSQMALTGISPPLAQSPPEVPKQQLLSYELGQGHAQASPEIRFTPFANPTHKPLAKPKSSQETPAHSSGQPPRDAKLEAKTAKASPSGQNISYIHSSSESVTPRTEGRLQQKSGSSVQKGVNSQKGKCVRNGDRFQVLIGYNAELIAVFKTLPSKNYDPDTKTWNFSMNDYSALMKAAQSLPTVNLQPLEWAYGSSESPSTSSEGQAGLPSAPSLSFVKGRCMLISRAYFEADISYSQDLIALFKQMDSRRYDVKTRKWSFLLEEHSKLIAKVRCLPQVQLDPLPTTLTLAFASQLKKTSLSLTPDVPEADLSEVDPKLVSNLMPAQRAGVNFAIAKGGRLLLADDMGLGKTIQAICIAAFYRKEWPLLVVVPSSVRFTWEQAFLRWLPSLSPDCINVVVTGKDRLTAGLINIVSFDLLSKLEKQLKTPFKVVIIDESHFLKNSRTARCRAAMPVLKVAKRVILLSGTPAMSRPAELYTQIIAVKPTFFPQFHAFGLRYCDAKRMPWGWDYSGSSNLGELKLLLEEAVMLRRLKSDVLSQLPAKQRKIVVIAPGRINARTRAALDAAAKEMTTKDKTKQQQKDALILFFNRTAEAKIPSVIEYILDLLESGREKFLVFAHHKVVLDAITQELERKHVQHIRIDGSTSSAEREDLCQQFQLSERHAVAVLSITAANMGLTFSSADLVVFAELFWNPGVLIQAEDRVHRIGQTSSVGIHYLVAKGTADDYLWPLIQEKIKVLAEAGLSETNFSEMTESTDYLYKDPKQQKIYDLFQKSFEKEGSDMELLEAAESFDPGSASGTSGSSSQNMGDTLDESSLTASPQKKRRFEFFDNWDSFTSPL

B1: MBP-RAD51 (natural protein, human, UniProt Q06609 1-339, looked up)
chain: MAMQMQLEANADTSVEEESFGPQPISRLEQCGINANDVKKLEEAGFHTVEAVAYAPKKELINIKGISEAKADKILAEAAKLVPMGFTTATEFHQRRSEIIQITTGSKELDKLLQGGIETGSITEMFGEFRTGKTQICHTLAVTCQLPIDRGGGEGKAMYIDTEGTFRPERLLAVAERYGLSGSDVLDNVAYARAFNTDHQTQLLYQASAMMVESRYALLIVDSATALYRTDYSGRGELSARQMHLARFLRMLLRLADEFGVAVVITNQVVAQVDGAAMFAADPKKPIGGNIIAHASTTRLYLRKGRGETRICKIYDSPCLPEAEAMFAINADGVGDAKD
notes: In the pull-downs the MBP tag was kept; the RAD51 of the DNA annealing assays was the same construct with the MBP cut off by PreScission protease and purified on HiTrap Q; not shown: MBP, N-terminal, kept
- binding result [1]: binds
- binding result [2]: binds

From publication PMC9371921, “Strand annealing and motor driven activities of SMARCAL1 and ZRANB3 are stimulated by RAD51 and the paralog complex” (Nucleic Acids Research, 2022)
